Consider 2 proteins from publication PMC5738273 (Journal of molecular biology, 2017).

Data set [1] deals with the molecule itself. Briefly: MST.
Data set [2] deals with the molecule itself. Briefly: MST. The source holds these as a separate data set.
Data set [3] deals with the molecule itself. Kind of data set: MST. The source holds these as a separate data set.
The data set “ITC” concerns the molecule itself. Briefly: ITC. Background: ITC needs no label: the signal is the heat of the interaction.
Data set [4] deals with the molecule itself. Briefly: MST. The source holds these as a separate data set.

Numbering of substitutions follows the chain as printed. Names may count otherwise.

B1: wild-type HdeA (natural protein, Escherichia coli, UniProt P0AES9 22-110, looked up)
chain: ADAQKAADNKKPVNSWTCEDFLAVDESFQPTAVGFAEALNNKDKPEDAVLDVQGIATVTPAIVQACTQDKQANFKDKVKGEWDKIKKDM
For orientation: Kd means a measure of binding affinity in units of concentration. Read a low Kd as higher affinity. B1: the Kd in the data set “MST [1]” was found to be 1.2 ± 0.2 µM; in “MST [2]”, 0.75 ± 0.31 µM; in “MST [3]”, 0.64 ± 0.17 µM; in “ITC” it was 64 ± 8 µM.

B2: HdeA E37Q (natural protein, Escherichia coli, UniProt P0AES9 22-110, looked up)
chain: B1 chain with E37Q
Take B2: the dissociation constant Kd in the data set “MST [3]” was 0.55 ± 0.1 µM; in the data set “MST [4]” it was 0.49 ± 0.1 µM.
